{"source": "a protein production outcome set (Wang et al. 2014)", "assay": "label from the status in PepcDB records"}
{"sequence": "MGTKRIGILTSGGDCPGLNAVIRAVVKASALKGWEVYGIPYGTDGFVEVAHGKYQAEDLLLTKHGYALPGMLKGLDVLQFLSGSVLGSLSKGHPEQPAIAEAILKGYAILDLEALIVIGGDGSLDIIYDLAQKGNWHIIAIPKTIDNDVPFTDLAVGFSTAVDIVTQALYDLTFTAASHERIIIVQVMGRDAGHLTLHAGIAGGADIILIPEITPCLTSEIIRNCCYQLMNLRKSGRHFALIVISEGVHDQNNKKNKHIADYLAEEISETSQHLCDIKDPAFCDLISLDIRATTLGHLQRSGTPLSFDRLLATVFGIRAVELIEQEIYDQVVIWRSGKVEHADLKPIISIIKECHQENRCPFPVDRDGFMVKTAKSLGIYLGED", "values": [{"measurement": "protein production", "value": "failed"}]}
{"sequence": "MGTLTCKDLNHKYRDTTMYKQQQIKQWFCGLSSITCQHISDWQKPHLGVLCAASAFLVLAAPVVNLPGSKLLAQTPISRDLETASFYQQGVTRYNRSDWQGAENAFRQALQREPNLAMARAYLGNIYLMQNRLDVAVQEYGEAIRLNPNLGETYYNLGLALQQQGKKEGAITAYRQALVIDPRRVEAYYNLGLVLYEQGLLQEAIAAYQDAVNLEPSKINAHHNLAIALQQTGKMEEAIVAYREVLKLDPKNAAAYSSLGSLMAMQGRPEEAIAAYTQAVRQDPKNALAYYNLGITLYNQGELQKASNAFKRAQEEYSQQGNLEQTEKTEQLMQQVAQKIEEQKLQQRQASTPKPTDNSTNNLLEKLTQLTAPKEQPANSGAVPVSDEQKQFPPIFPNTNSR", "values": [{"measurement": "protein production", "value": "failed"}]}
{"sequence": "MGTMNVVGLAIYLYAGFLSFIFGFISLYAFIKYSKLERKNKEIIYVYVDNLKNFSPYMFYSILLTFTIVFVIFALFICFVFNFDLYLGLTMLFSYFLIIYLFCFKKYRVEIYKDGFYGVFQN", "values": [{"measurement": "protein production", "value": "failed"}]}
{"sequence": "MGTPNDQAVLQAIFNPDTPFGDIVGLDLGEEAEKEEREEDEVFPQAQLEQSKALELQGVMAAEAGDLSTALERFGQAICLLPERASAYNNRAQARRLQGDVAGALEDLERAVELSGGRGRAARQSFVQRGLLARLQGRDDDARRDFERAARLGSPFARRQLVLLNPYAALCNRMLADMMGQLRRPRDSR", "values": [{"measurement": "protein production", "value": "failed"}]}
{"sequence": "MGTTVMVPIYTSTAAASPYSINLASMPPKTVLSKGDEEIAAIALPRQPKFYDLKTADGIPYSHIALLHSNNVLATTVQQTCIRYRDESTVCQFCAIEKSLDAGRTITRKLPEQLAEVTEAAVRLDGIEQVIMTTGTPNSGDRGAAYLTKCAAAIKARVNIPIQAQCEPPDDFIWFERMKAAGVDSLGMHLEAVDPDVRAKIMPGKAEVPVSYYYEAYEAAVKVFGWGQVSTYLLAGLGDSFETLVEASEKLVNMGVYPFVVPFVPISETPLANHPAPDSDFMFALYQRVGTIIKQSQISSVDMKAGCAKCGACSALSTFAKLEHHHHHH", "values": [{"measurement": "protein production", "value": "failed"}]}
{"sequence": "MGVALAAMCLMSAQAQRRNEIQVPNLNGYTTLKCDFHMHSVFSDGLVWPTVRVDEAYREGLDAISLTEHIEYRPHKKDIIADHNRSYELSQKQAKKLGILLIRGSEITRSMPPGHFNAIFLNDSNPLEQKAYKDAFNEAKKQGAFIFWNHPGWARQQPDSTLWWPEHTQLYNDGCMHGIEVANGGLFMPEAIQWCLDKNLTMIGTSDIHQPIQTDYDFSKGEHRTMTFVFAKERSPEGIREALDNRRTAVYYRELVIGREEILRPFFEKCVDIKEVKRTEKEVTFSVMNATDLVLKLKKTAHDPSLVYFREMTLKPHTQHTISVKFDNGIKGGDCNFEVTNFIVAPDKGLDYTIKL", "values": [{"measurement": "protein production", "value": "not failed"}]}
{"sequence": "MGVVHHSVYAVYLEAARVDFLERAGLPYHRVEARGVFFPVVELGLTFRAPARFGEVVEVRTRLAELSSRALLFRYRVEREGVLLAEGFTRHLCQVGERAARIPEDIYRALSVLHLK", "values": [{"measurement": "protein production", "value": "not failed"}]}
{"sequence": "MGYRRFLQLVAHEFFHLWNVKRIRPKALEQFDYEAENYTPSLWFSEGATSYYDLLLPLRAGLYGVDSFLEALGKDLSRYLTTPGRKVQPLAESSFDAWVKLYRRDAYSDNQQMSYYLKGQLVCWLLDLEIRNHQPDLEHHHHHH", "values": [{"measurement": "protein production", "value": "not failed"}]}
{"sequence": "MHEFSTVDGFAEINESLAEMIKYIANEPSVGLYYIQQHIRNAAPNVINLNNNVLEKSRETGLHTEDLEDSIAMVKSMKDCGSPIADEMIGDIKNSLAIMSSKQPRRGVILNSTSPWSRSSSITTRTRGSDNSQDNSESSNYFTSVFMTAKEKASNIKWPQLDFKEQKSEADPNVQSNELKEEEEEDSGKGEHIVETTKFEEFKAGKEASLKAWLGDMDGNVDVGGRVAERI", "values": [{"measurement": "protein production", "value": "not failed"}]}
{"sequence": "MHELSISRHIAAPPGKVWDVLANRQEEWWCPRPWWITLIAQERRPGGRSAMVMHGPDGEEMPQEGIFLAWDEGHRFVTTDAVTADFLPAGPFMVGIWEVEPEGEGTRYTASARHWTEEAMREHAEMGFEAGWNACADQLQALCEAD", "values": [{"measurement": "protein production", "value": "failed"}]}
{"sequence": "MHEYSVVSSLIALCEEHAKKNQAHKIERVVVGIGERSAMDKSLFVSAFETFREESLVCKDAILDIVDEKVELECKDCSHVFKPNALDYGVCEKCHSKNVIITQGNEMRLLSLEMLAE", "values": [{"measurement": "protein production", "value": "failed"}]}
{"sequence": "MHFSKEHINALETRTRAHFINSLSGFKSANLIGTQDRQGNTNLSIVSSVIHLGANPPLMGMIIRPHSVPRHTFENIMQTGLYTINHVNQSIYEQAHQTSARYDKDESEFEATGLTPEYLSDFCAPFVKESRLKYSVKLVEHQHLAINGTEFVIGEIVDVYVDDNAVQTDGFIDLQAIDTVAISGLDCYYTGDKLARLPYAKK", "values": [{"measurement": "protein production", "value": "not failed"}]}
{"sequence": "MHGIDLHTHSNISDGTLSPSCLVDAAIACGIHTLALTDHDTMDGLETAIQQAQGHDIQIISGAEISSQWSRPNTKKAYGVHIVALNMQNPEPLLDALVIQKNIRAERAQQICQILQQCTGQDIYTDVLLKVEGEPDRITRTHIAKALVEKEIVARPQQAFDRFLKEGKRAYVKFDGLNLADTIRIIHESEGFAILAHPTRYDLSSTNVRYLIELFAKMGGDAVELPPSVDPVSTRQMIDRIIQQFDLKVSIGSDFHG", "values": [{"measurement": "protein production", "value": "failed"}]}
{"sequence": "MHGLLPALKRGFKRWIGWRRLGIAASVFIIAFAITTLVRTLKGIDTGVILTALTEIPRGNIGLAAICVFFAFCTLTFYDFFALRTIGKKHVPYRIAALSSFTSYSIGHNIGATVFTGGAIRFRIYSDYGLNAIDVAKICFLSGLTFWLGNIFVLSIGMAVHPDAASSMDQLPSSINRLIALGGLASIGAYLVWLCMGEKRRELGQKGWKVVLPSAPLTLVQILIGVVDLGFCATAMYLLIPATPPIDFLSLAVVFILATLLGFASHAPGSIGVFDAAMLVALPEFGREQLLATLLVFRLLYFVIPFGLAISIMGTRELWMNVVEPWQERRRLAEACAQANLPKQVAAMERERSLRQASKR", "values": [{"measurement": "protein production", "value": "failed"}]}
{"sequence": "MHIHILGICGTFMGGIAAIARNAGHTVTGCDANVYPPMSDQLRALGIELTEGWDAGQVRLEPDAFVVGNVVTRGNPLMEAILERGLPYTSGPQWLADNVLRDKWVLAVAGTHGKTTTSAMLAWILEDARLHPGFLVGGIPQNFGLSARLTDSPFFVIEADEYDTAFFDKRSKFVHYRPRTAILNNLEFDHADIFPDIQAIETQFHHLVRTIPGNGLIVANGREAALDRVLERGLWTPVERFGSIGGWTAGEADASGSFDVHFNSALQGRVRWELIGEHNRMNALAAIAAARHAGVPAAAAIDALSRFENVKRRMEIRGAVHGITVYDDFAHHPTAITTTVQGLRAKVGNARILAVLEPRSNTMKLGVMKDALPASLAGADEVYCYGANLGWDAAEALAPLGEKARVFDNLDKLVAQLVADGRPGDHVLMMSNGGFGGIHAKLLDALHHHYHEEIVLTPMHRYGGYA", "values": [{"measurement": "protein production", "value": "failed"}]}
{"sequence": "MHIRRDQYMNEYVWETCEELDKKIADRVRLIRKRRSISQEKLSKISNVSLGSIKRFETTGQISLLSLTKIAVALNIADDLRNIFTEIPYNSIEEVINERR", "values": [{"measurement": "protein production", "value": "not failed"}]}
{"sequence": "MHKFIVIFVTLLISISVQTLAADLEIEEIELRETPQKMYDRLNQSISFPISFKNREQFERAAQEQGYSPDEFEHILQLLARLNLEPNVKTKVEFQDANSLIELLTSIAQTPLEQATVAMLKGRYIGRTEQKYQEAIAFYNQALSHINDSVDLGSMLLKHTIHEHLGLLHLVIRQDVPALMHFHTYRDIAYKLRNDYLIAAAESKLGHYYNKNQQLTKSLQHYSEAVRLSNRSNYPSMKTHLQLQLAKVYRDLKQWDEALKNAHEAAAGFKKLGNDTYLSSCMTVIAMVYGEQGDWNRAIDYYLNAQQLDAKRGNYIAQGLNFHNLGQAYSHLNDNVNALKYLLMANKIFTDKQSHHYLVYNELLIGEIAQSKQDWTLMMSHAEHALALASNLALLDEQKSALTQIALSAEKMQDQAKVISTQKRIIELNNTSKNTAKDPAVAASVLAEQQLKLELNMVQGKLNDAIESAKETNKLLALSGVILTLLVIAIIALLNQRQKSRRQNESLLQLTLEEPFTHHKGYAALLRDLGPNTPHTRTTALALIEFRDHLMTDLNHGQYFANAITCQLASHISNSLFMPVYVIRQGLFAVRFTETVDPQQALTQLQQQLDKNAFTAIFNLGFINLPLLTKTEINIAPKLLFETVQMALAGARSLPSNTCHYVSLRALDFVPPTLFADPLFLHLEKGIERGLIRVETNAMKEDIVWPCWENNQNRHLLGNI", "values": [{"measurement": "protein production", "value": "failed"}]}
{"sequence": "MHKTAFIWTDEYYNYSFPDYHPFKSLRESMTKRLLEERGAFHFITLVEPKSIPEEALQLVHSKEYIEFVKYKSKEGQGYLDDGDTPAFKGIYEAALIRVSGSVKALELIKSGEFNHTINIGGGFHHAKRNRAAGFCVFNDVALISKLGESFFSRIAIVDIDGHHADGTQELLIDDNNILKISLHMFHPNFFPGTGDVNEIGLGKGEGYTINIPLPPGTGDDGYLLAFDEIVVPAIERYKPELIILVAGGDSHFNDPLVELKLSTHGYLDVVTKIHRLVHEYSNGRLIMLGGGGYNYDATARIWTISIAEIAGIYDLEYETLHDSFSTKSSQFVMEKIRNTISLIKKIHSLN", "values": [{"measurement": "protein production", "value": "failed"}]}
{"sequence": "MHKVLVPFDGSEHAMRALGYVIELSGDLNKPLEVHVLNVQASPIDYSLYLAPDMIDGVKAGLKNEGKRVLDDAIALLAAAGVPFQAHVDLGNVAEQVEAEVQRLGCDAVVMGTRGLGNFGGLLLGSVATRVIHEVSVPVTLIK", "values": [{"measurement": "protein production", "value": "failed"}]}
{"sequence": "MHKVVIVGRPNVGKSSLFNRLLKKRSAVVADVPGVTRDLKEGVVETDRGRFLLVDTGGLWSGDKWEKKIQEKVDRALEDAEVVLFAVDGRAELTQADYEVAEYLRRKGKPVILVATKVDDPKHELYLGPLYGLGFGDPIPTSSEHARGLEELLEAIWERLPVRQIETEPEVAGIRLAIVGRPNAGKSSLLNAILGEERVIVSEEPGTTRDAIDVEFFFGGQRFVLVDTAGIRKRPENLVEELAIRRSLRAMDEADVVLLVVDPFQVGDRELKLANEALDRGKPVLLVITKWDLVDKEDAPKMRRLLREKLAHLDHLPRVFTSALTRQNLDRIFREAVRLHELNQTRVPTAELNRWVAVWTSRVQMPNFKGKPLKILYATQPEVAPPTFVFFVNHPEFVTRAFENYLKNRIGEDLGLREVPFRLVFRGRREE", "values": [{"measurement": "protein production", "value": "not failed"}]}
{"sequence": "MHLKKIWAVIYAVMLAAFSTFVLLDAFVIPKDRIKADEPIQSQEITDESIEAKAEAVITENSYKDDKISITISELREYDTSIYVADIQLADASYLRAGLADGTFGRNVTEVTSQIAQDSNAILAINGDFYGFRNKGYVMRNGYLYRETAQQGRQGNSRQEDLVIYEDGHMDVIEENEVAAQTLKDSGASQIFSFGPGLIKNGNITVDENSEVEQSMQSNPRTAIGMITPLHYIMAVSDGRTEASEGLTLYQLAQIMKGQDCVTAYNLDGGGSSTMWFNGEVVNKPTSYGSKISERAVSDIVYIGR", "values": [{"measurement": "protein production", "value": "failed"}]}
{"sequence": "MHLNNLNNFNNLENNGEYHCSGPIIKKPFRHIALTVPSSDITNFNEIFYVEPQYIAQAIRLTNTFQGAIDPLTLNFNFEKALQIANGLPNAGVTGTINQSVIHQTIEVSVMISQIKEIIRSVLGLVINSANFWNSVVSAITNTFTNLEPQVDENWIVWRNLSATQTSYFYKILFSIQNEDTGRFMAILPIAFEITVDVQKQQLLFITIKDSARYEVKMKALTVVQALDSYNAPIIDVFNVRNYSLHRPNHNILQNLNVNPIKS", "values": [{"measurement": "protein production", "value": "not failed"}]}
